Data: patent US20230167458A1, “FORSKOLIN-INDUCIBLE PROMOTERS AND HYPOXIA-INDUCIBLE PROMOTERS” (ASKLEPIOS BIOPHARMACEUTICAL, INC., priority 2020, published 2023)

Experiments:
HEK293-F = assay: Luciferase time course after forskolin induction, transient transfection of suspension HEK293-F; format: cell-based, human; details: 20 µM forskolin
Procedure: The tested promoters were synthesised directly upstream of the ATG of PM-RQ plasmid and the suspension cell lines were transiently transfected with the PM-RQ plasmid.
40 ml of cells were grown in a 250 ml vented Erlenmeyer flask (Sigma-Aldrich CLS431144) at 37° C., 20% O2, 8% CO2 with agitation at 100 rpm. Cells were seeded as described in the manufacturer's instructions (300,000 cells/ml). HEK293-F were obtained from Thermofisher, R79007.
One day before transfection, the cells were counted using a haemocytometer and split to 500,000 cells/ml.
On the day of transfection, the cells are seeded to 1,000,000 cells/ml in 500 μl of appropriate medium (Freestyle 293 expression medium, 12338002) in a 24 well plate. […] of DNA per well was then added to 10 μl of OptiMem medium (Thermofisher; 11058021) and incubated for 5 minutes at room temperature.
Concurrently, 0.625 μl of Max reagent (Thermofisher, 16447100) was made up to 10 μl by addition of OptiMem and incubated for 5 minutes at room temperature. After this incubation, both mixes were added to the same tube and incubated at room temperature for 25-30 minutes. […]
24 hours after transfection, the promoters were induced by addition of […] forskolin and luciferase activity was measured 0, 3, 5 and 24 hours after induction. Luciferase activity was measured as previously described.

CHO-GS-KSV1 cell line = assay: SEAP expression in stably transfected CHO-GS-KSV1, forskolin or NKH477 induction; format: cell-based, chinese hamster; details: stable CHO-GS-KSV1, SEAP, forskolin or NKH477
Procedure: The forskolin-inducible promoters were then tested in a stably transfected CHO-GS-KSV1 cell line.
• CD-CHO media (Life technologies, CAT #10743029) • Corning 125 mL Polycarbonate Erlenmeyer Flask with Vent Cap (CAT #734-1885). • Gene Pulser® Electroporation Cuvettes, 0.4 cm gap (BioRad, CAT #165-2088) • Gene Pulser Xcell Total System (BioRad, CAT, #1652660) • GS-vector DNA ([…] in 100 μL TE buffer) linearised with Sca1 • Suspension cultures of CHOK1SV GS-KO host cells.
Cell suspensions of 6×10^5 cells per mL were incubated on an orbital shaker set at 8% CO2, 20% O2, 37° C., 85% relative humidity and 140 rpm overnight. 2.86×10^7 cells were centrifuged at 200 g for 3 minutes. Media was then aspirated and cell pellet resuspended in 2 mL fresh CD-CHO media to obtain a concentration of 1.43×10^7 cells per mL. 700 μL of cell suspension was added to each of two electroporation cuvettes each containing […] of linearised DNA in 100 μL of sterile TE buffer (Thermofisher, 12090015). Each cuvette was electroporated, delivering a single pulse of 300V, […] with resistance to infinity. Immediately after delivery of pulse electroplated cells were transferred to Erlenmeyer 125 mL flask containing 20 mL of CD-CHO media pre-warmed to 37° C. Electroporated cells from two cuvettes are combined into a single 125 mL flask to generate one pool of cells. Cells are cultured on an orbital shaker set at 8% CO2, 20% O2, 37° C., 85% relative humidity and 140 rpm. Cells are transferred to fresh CD-CHO media 24 hours after transfection and cell cultures monitored and given fresh CD-CHO media every 2-4 days. Usually after about 10-14 days cell numbers will be high enough to start passaging.
The transfected DNA was the pXC-17.4 expression vector (Lonza Biologics plc) where one of the promoter constructs (or a control promoter (CMV-IE) have been cloned upstream of the secreted alkaline phosphatase (SEAP) gene, which had been cloned into the multiple cloning site within the vector expression cassette. Promoters were closed into the pXC-17.4 vector using Gibson assembly. The pXC-17.4 expression vector is designed for making stable cell lines in the CHO-GSK1SV cell line as it contains the […] gene which has been knocked out of the cell line. Therefore, selection of cells in glutamine drop-out medium will select for cells that have stably integrated the plasmid.
The responsiveness of the RTV-019 promoter to different concentrations of forskolin and […] was tested in the stably transfected CHO-GS-KSV1 cell line. To this end, the stably transfected CHO-GS cells were seeded at 500,000 cells/ml and allowed to grow for 24 hrs. At this point the cells were induced by addition of the respective concentrations of forskolin and NKH477 and SEAP expression was measured as described below after 24 hours.
The promoter activity and inducibility of FMP-02, FORCYB-001, RTV-017, FORCSV-10, FOR-CMC-009, FLP-01 and RTV-019 were also tested in the stably transfected CHO-GS-KSV1 cell line. To this end, the stably transfected CHO-GS cells were seeded at 500,000 cells/ml and allowed to grow for 24 hrs. At this point the cells were exposed to […] forskolin or […] NKH477 for 24 hours. After this point, the SEAP activity in the medium was assessed as described below.
SEAP Reporter Gene Assay, chemiluminescent (Roche, CAT #11 779 842 001) was used to measure SEAP activity as per the manufacturer's protocol. All reagents and samples were fully pre-equilibrated at room temperature. Culture supernatant was collected from the stably transfected CHO-GS at the specific time points (0 h and 24 h). The supernatant was diluted 1:4 in dilution buffer and heat treated at 65° C. for 30 minutes. The heat-treated sample was then centrifuged for 30 s at maximum speed. 50 μl of the heat-treated sample was then added to 5 μl of inactivation buffer and incubated for 5 min at room temperature. 50 μl of substrate reagent was then added and incubated for 10 min at room temperature. […]

B1: FMP-02: synthetic forskolin-inducible promoter, SEQ ID NO: 41; 8× AP1(1) TFBS and MinTK minimal promoter (nucleic acid)
DNA: TGAGTCAGATGATGCGTAGCTAGTAGTTGAGTCAGATGATGCGTAGCTAGTAGTTGAGTCAGATGATGCGTAGCTAGTAGTTGAGTCAGATGATGCGTAGCTAGTAGTTGAGTCAGATGATGCGTAGCTAGTAGTTGAGTCAGATGATGCGTAGCTAGTAGTTGAGTCAGATGATGCGTAGCTAGTAGTTGAGTCAGTAGTCGTATGCTGATGCGCAGTTAGCGTAGCTGAGGTACCGTCGACGATATCGGATCCTTCGCATATTAAGGTGACGCGTGTGGCCTCGAACACCGAGCGACCCTGCAGCGACCCGCTTAA
modifications: Synp-FMP-02
notes: 8× AP1(1) TFBS and MinTK minimal promoter
relative rank of promoter (fold induction/strength) (HEK293-F): weakest | relative rank of promoter strength (CHO-GS-KSV1 cell line): weakest
